Assay results reported in the nanobody polyreactivity screen of Harvey et al. (2022).

experiment: yeast display, Sf9 membrane polyspecificity reagent, FACS + sequencing; frameworks hold sequencing errors
How it was run: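 Synthetic nanobody libraries on Saccharomyces cerevisiae BJ5465 were galactose-induced for 36–48 hours, stained 1 hour at 4 °C with 10% biotinylated, detergent-solubilized Sf9 membrane reagent and enriched on streptavidin microbeads. FACS then separated cells into low and high (top ~1%) gates by anti-HA (expression) and streptavidin (reagent binding) fluorescence. Genes were colony-PCR amplified, MiSeq 2 × 250 sequenced and CDR-length filtered. A clone's polyreactivity label is that of its gate of origin.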

Row | Sequence | polyreactivity (PSR sort gate)
1 | QVHLVESGGGLVQAGGSLRLSCAASGIIFGRFTMGWYRQAPGKERELVAAITSSGITYYADSLKGRFTISRDNAKNTVYLQMNSLKPEDTAVSYCNADYSIPGYYWPFDYWGQGTQVTVSS | low polyreactivity
2 | QVHLVESGGGLVQAGGSLRLSCAASGIIFVLYTMGWYRQAPGKERELVATINWGGGNTYYADSLKGRFTISRDNAKNTVYLQMNSLKPEDTAVYYCAAAYTWYGYSQAYYYWGQGTQVTVSS | low polyreactivity
3 | QVHLVESGGGLVQAGGSLRLSCAASGIILYGYAMGWYRQAPGKERELVAAITKSGGSTYYADSVKGRFTISRDNAKNTVYLLMNSLKPEDTAVYYCAAKLWGIWYYGYRPDDYWGQGTQVTVSS | low polyreactivity
4 | QVHLVESGGGLVQAGGSLRLSCAASGIPLYFYAMGWYRQAPGKERELVAAISRGGRTYYADSVKGRFTISRDNAKYTVYLQMNSLKPEDTAVYYCAARYTSEYSAFDYWGQGTQVTVSS | low polyreactivity
5 | QVHLVESGGGLVQAGGSLRLSCAASGITFGYYAMGWYRQAPGKERELVAAISNSGRTYYADSVKGRFTISRDNAKNTVYLQMNSLKPEDTAVYYCADVDAYYDFYYWGQGTQVTVSS | low polyreactivity
6 | QVHLVESGGGLVQAGGSLRLSCAASGITFNSYAMGWYRQAPGKERDLDASISWIGGSTYYADSVKGRFTISRDNAKNTVYLQINSLKPDDTAVYYCAVDKGTDYYYDVDYWGQGTQVTVSS | low polyreactivity
7 | QVHLVESGGGLVQAGGSLRLSCAASGITFRFNAMGLSRQAPGKEMEFVAAITYSGDSTYYADSLKVRFTISRDNAKNSVYLHLKSVKPEDTAVYYCAAEYYAISRRIFYYWGQGTQVTVSS | low polyreactivity
8 | QVHLVESGGGLVQAGGSLRLSCAASGITFRYYAMGWYRQAPGKERELVAVISTSGGSTYYADSVKGRFTISRDNAKNTVYLQMNSLKPEDTAVYYCAVVWPYSERYYYWGQGTQVTVSS | high polyreactivity
9 | QVHLVESGGGLVQAGGSLRLSCAASGITLRVYVMGWYRQAPGKERELVAAITSRGDRTYYADSVKGRFTISRDNAKNTVYLQMNSLKPEDTAVYYCAASRWRDAGHSYDYWGQGTQVTVSS | high polyreactivity
10 | QVHLVESGGGLVQAGGSLRLSCAASGITVGSYAMGWYRQAPGKERELVAAITSGGGTNYADSVKGRFTISRDNAKNTVYLEMKSLKPEDTAVYYCAARYYYLGTRYGYWGQGTQVTVSS | low polyreactivity
11 | QVHLVESGGGLVQAGGSLRLSCAASGLIFTTNAMGWYRQAPGKERDFVAAISPSGGSTYYADSVKGRFTISRDNSKNTVYLQMNSLKPEDTAVYYCAARYSTVWHKYYYWGQGTQVTVSS | high polyreactivity
12 | QVHLVESGGGLVQAGGSLRLSCAASGLIFYRYAMGWYRQAPGKERELVATISSGGSTNYADSVKGRFTISRDNAKNTVYLQMNSLKPEDTAVYYCAASRWLYYYLFEYWGQGTQGTVSS | high polyreactivity
13 | QVHLVESGGGLVQAGGSLRLSCAASGLIIYRYAMGWYRQAPGKERELVAAITTNGARTYYADSVKGRFTISRDNAKNTVYLQMTSLIPEDTAVYYCAAYGAGKFWAEHNYWGLGTQVTVSS | high polyreactivity
14 | QVHLVESGGGLVQAGGSLRLSCAASGLTFGRNAMGWYRQAPGKERELVAVISRSGGSTYYADSVKGRFTISRDNAQNTVYLQMNSLKPEDTAVYYCAAGAYSYRKYRSYDYWGQGTQVNVSS | high polyreactivity
15 | QVHLVESGGGLVQAGGSLRLSCAASGLTFYPNAMGWYRQAPGKERELVAAITYSTGSTYADSVKGRFTITRDNAKNTVFLQMNSLKPEDSAVYDCAAYWSRVRYGMNYWGQGTQVTVSS | high polyreactivity
16 | QVHLVESGGGLVQAGGSLRLSCAASGLTFYYYVMGWYRQAPGKERELVAAISYSGGRTYYADSVKGRFTISRDNAKNTVYLQMNSLKPEDTAVYYCAAQSRYGGKFYYWGQGTQVTVSS | high polyreactivity
17 | QVHLVESGGGLVQAGGSLRLSCAASGRIFADYAMGWYRQAPWKERELVADIRQSGGRTYYADSVKGRFTISRDYAKNTVDLQMNSLKPEDTAVYYCATDYGSWGDYSGKYDYWGQGTQVTVSS | low polyreactivity
18 | QVHLVESGGGLVQAGGSLRLSCAASGRIFAGYAMGWYRQAPGKERELVATITRGGSTNYADSVKRPFTISRDNAKNTVYLQMNSLKPEDTAVYYCADVTWYEEYDSWGQGTQVTVSS | low polyreactivity
19 | QVHLVESGGGLVQAGGSLRLSCAASGRIFAWYAMGWYRQAPGKERELVAAITWGGGRTYYADSVKGRFTISRDNAKNTVYLQMNSLKPEDSAFYYCNRDFDDEMWGQGTQVTVSS | low polyreactivity
20 | QVHLVESGGGLVQAGGSLRLSCAASGRIFGDYAMGWYRQATGKERELVAAINSSGTSTNYADSVKGRFTFSRDNAKNTVYLQMNSLKPEDTAVYYCNAEGTYRPEYDSWGQGTQVTVSS | low polyreactivity
21 | QVHLVESGGGLVQAGGSLRLSCAASGRIFGPYAMGWYRQAPGKERELVASISGGGSTNYADSVKGRFTISRDNAKNTVYLQMNSLKPEDTAVYYCAADVYYQYWGWWPYDYWGQGTQVTVSS | low polyreactivity

Row | Sequence | polyreactivity (PSR sort gate)
22 | QVHLVESGGGLVQAGGSLRLSCAASGRIFHYNTMGWYRQAPGKERELVAAITSSGGSTYYADSVKGRFTISRDNAKNTVYLQMNSLKPEDTAVYYCNAVFYRYGFKVDYWGQGTQETVSS | high polyreactivity
23 | QVHLVESGGGLVQAGGSLRLSCAASGRIFIYYAMGWYRQAPGKERELVAAISWCGGRTYYADSVKGRFTISRDNAKNTVYLQMNSLKPEDTAVYYCAAGVYTGQHEYDYWGQGTQVTVSS | low polyreactivity
24 | QVHLVESGGGLVQAGGSLRLSCAASGRIFPKNGMGWYRQAPGTERDLVAAITSGTSTYYADSVKGRFTISRDNAKNTVYLQMNRLKPEDTAVYYCAARPTDGSGWPYRWTSDYWGQGTQVTVSS | low polyreactivity
25 | QVHLVESGGGLVQAGGSLRLSCAASGRIFRKYAIGWYRQAPGKERELVAAISFSGTSTYYADSVKGRFTISRDNAKNTVYLQMNSLKPEDTAVYYCAAVYRQGTGYVDYDSWGQGTQVTVSS | low polyreactivity
26 | QVHLVESGGGLVQAGGSLRLSCAASGRIFVFNAMGWYRQAPGKERELVAAINYRGGTYYADSVKGRFTISRDNAKNTVYLQMNSLKPEDTAVYYCNALRQKFQYHDNDYWGQGTQVTVSS | high polyreactivity
27 | QVHLVESGGGLVQAGGSLRLSCAASGRIFVKYAMGCYRQAPGKERELVAAIRSGGSTYYADSVKGRFTISRDNAKNTVYLQMNSLKPEDTAVYYCAADRNKHHYYTEPYDYWGQGTQVTVSS | low polyreactivity
28 | QVHLVESGGGLVQAGGSLRLSCAASGRIFVRYAMGWYRQAPGKERELVATISGGRTNYADSVKWRFTISRDNAKNSVYLQMNSLKPEDTAVYYCAVGSHSRSSNSYYYWGQGSQVTVSS | low polyreactivity
29 | QVHLVESGGGLVQAGGSLRLSCAASGRISKLYAMGWYRQAHGKERDLVAAISSGGSTYYADSVKGRFTISRDNAKNTVYLQMNSLKPEDTAVYYCAVTQVMQYGIPYSYTRDYWGQGTQVTVSS | low polyreactivity
30 | QVHLVESGGGLVQAGGSLRLSCAASGRISWGYAMGWDRQAPGKERELVAVINFNGGRTYYADSVKGRFTISRDNAKNTVYLQMNSLKPEDTAVYYCAADSGYEYDYWGQGTQVTVSS | low polyreactivity
31 | QVHLVESGGGLVQAGGSLRLSCAASGRIYPYPMGWYRQAPGKERELVAAITSRGGTTYYADSVKGRFTISRDNAKNTDYVQMNSLKPEDTAVYYCNKRPWWWGGDDYWGQGTQVTVSS | low polyreactivity
32 | QVHLVESGGGLVQAGGSLRLSCAASGRNFYTNVMGWSRQAPGKERELVAAISSGGGTTYYADSVKGRFTISRDNAKNTVYLQMNSLKPEDTAVYYCAADALSDEYDYWGQGTEVTVSS | low polyreactivity
33 | QVHLVESGGGLVQAGGSLRLSCAASGRSFRRNARGWYRQAPGKERELVATISSGGTTKYADSVKGRFTISRDNAKYTVYLQMNNLKPEDTAVYYCNADLNRRTYGPDSYYWGQGNQVTVSS | high polyreactivity
34 | QVHLVESGGGLVQAGGSLRLSCAASGRTFASNPMGWYRQAPGKERELVAAISARGGSTYYADSVKGRFTISRDNAKNTVYLQMNSLKPEDTAVYYCAAYLGYPYGRDYWGQGTQVTVSS | high polyreactivity
35 | QVHLVESGGGLVQAGGSLRLSCAASGRTFFWYVMGWYRQAPGKERELVATISYGGITYYADSVKGRFTISRDNAKNTVYLQMNSLKPEDTAVYYCAARRSLYYSTVKFDGYYYWGQGTQVTVSS | high polyreactivity
36 | QVHLVESGGGLVQAGGSLRLSCAASGRTFGWNVMGWYRQAPGTERELVAAISGSGGSTYYADSVKGRFTISRDNAKNTVYLQMNSLKPEDTAVYYCAALYGPGREYDYWGQGTQVTVSS | low polyreactivity
37 | QVHLVESGGGLVQAGGSLRLSCAASGRTFIYYAMGWYRQAPGKERELVASITTGGRTYYADSVKGRFTISRDNAKNTVYLQMNSLKPEDSAVYYCAAEPHFFWYYHYVYGEHDYWGQGTQVTVSS | high polyreactivity
38 | QVHLVESGGGLVQAGGSLRLSCAASGRTFKYYAMGWYRQAPGKERELVAAISSRGGSTYYADSVKGRFTISRDNAKNTVYLQMNSLKPEDTAVYYCAKGTYLSTSTVANDYWGQGTQGTVSS | high polyreactivity
39 | QVHLVESGGGLVQAGGSLRLSCAASGRTFPYNAMGGYRQAPGKERELVAAISSGGSTTYADSVKGRFTISRDNAKNTVYLQMNSQKPEDTAVYYCATKYQRRPYRYYYWGQGTQVTVSS | low polyreactivity
40 | QVHLVESGGGLVQAGGSLRLSCAASGRTFSGYAMGWYRQAPGKERELVAAITSSGSSTYYADSVKGRFTISRDNAKNTVYLQMNSLKPEDTAVYYCAATPQAHSERYYYQRKYDYWGQGTQVTVSS | low polyreactivity
41 | QVHLVESGGGLVQAGGSLRLSCAASGRTFSRYAMGWYRQAPGKERELVATITRGGSTNYADSVKGRFTISRDNAKNTVYLQMNSLKPEDTAVYYCNAASFRYQGTLNHFYYWGQGTQVTVSS | low polyreactivity
